How the values were obtained:
5HT3a = biological target: T1, 5HT3a (Homo sapiens, UniProt P46098); test: Ion channel panel (IonWorks Barracuda): 5HT3a; format: cell-based
T1 construct: host or cells: HEK293 or CHO
T1 sequence (P46098 whole entry, looked up): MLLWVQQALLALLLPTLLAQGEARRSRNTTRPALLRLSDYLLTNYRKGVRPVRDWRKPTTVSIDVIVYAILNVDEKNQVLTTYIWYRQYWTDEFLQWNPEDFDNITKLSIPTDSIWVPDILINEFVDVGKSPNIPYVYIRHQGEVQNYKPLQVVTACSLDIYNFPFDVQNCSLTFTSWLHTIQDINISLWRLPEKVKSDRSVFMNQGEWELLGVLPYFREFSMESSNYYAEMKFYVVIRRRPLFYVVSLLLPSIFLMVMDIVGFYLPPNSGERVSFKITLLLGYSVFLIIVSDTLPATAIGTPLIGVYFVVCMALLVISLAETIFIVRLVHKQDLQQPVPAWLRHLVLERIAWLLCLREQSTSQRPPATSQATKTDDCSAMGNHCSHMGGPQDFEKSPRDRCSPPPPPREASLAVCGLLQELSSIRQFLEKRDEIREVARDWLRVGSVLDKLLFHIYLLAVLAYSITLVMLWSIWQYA
How it was run: (§1)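 Peptides were tested in duplicate at final 20 μM and 200 nM, with concentration set by amino acid analysis, in HEPES-buffered saline. They were applied for at least 5 min to HEK293 or CHO cells transfected with each channel. Currents were expressed as % inhibition, 1-(Ipeptide/Icontrol)×100, or % activation, Ipeptide/Icontrol×100, against a channel-matched reference compound.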

α3β4 = biological target: T2, α3β4 (Homo sapiens, UniProt P30926+P32297); test: Ion channel panel (IonWorks Barracuda): α3β4; format: cell-based; conditions: 100% = no change, <100% = inhibition
T2 construct: host or cells: HEK293 or CHO
How it was run: as §1

α4β2 = biological target: T3, α4β2 (Homo sapiens, UniProt P17787+P43681); test: Ion channel panel (IonWorks Barracuda): α4β2; format: cell-based; conditions: 100% = no change, <100% = inhibition
T3 construct: host or cells: HEK293 or CHO
How it was run: as §1

Cav2.1 = biological target: T4, Cav2.1 (Homo sapiens, UniProt O00555); test: cell-based; conditions: 100% = no change, <100% = inhibition
T4 construct: host or cells: HEK293 or CHO
How it was run: as §1

Cav2.2 = biological target: T5, Cav2.2 (Homo sapiens, UniProt Q00975); test: cell-based; conditions: 100% = no change, <100% = inhibition
T5 construct: host or cells: HEK293 or CHO
How it was run: as §1

Kv2.1 = biological target: T6, Kv2.1 (Homo sapiens, UniProt Q14721); test: cell-based; conditions: 100% = no change, <100% = inhibition
T6 construct: host or cells: HEK293 or CHO
How it was run: as §1

GABA = test: Ion channel panel (IonWorks Barracuda): GABA; format: cell-based; conditions: 100% = no change, <100% = inhibition
How it was run: as §1

Nav1.5 = Nav1.5 (Homo sapiens, UniProt Q14524); test: in vitro; conditions: 100% = no change; for Activity of Nav1.5 with peptide, expressed as a percentage of the reference compound: peptide at 0.2 μM; for Activity of Nav1.5 with peptide (percentage of the reference compound): peptide at 20 μM
Chain of Nav1.5 (Q14524 whole entry): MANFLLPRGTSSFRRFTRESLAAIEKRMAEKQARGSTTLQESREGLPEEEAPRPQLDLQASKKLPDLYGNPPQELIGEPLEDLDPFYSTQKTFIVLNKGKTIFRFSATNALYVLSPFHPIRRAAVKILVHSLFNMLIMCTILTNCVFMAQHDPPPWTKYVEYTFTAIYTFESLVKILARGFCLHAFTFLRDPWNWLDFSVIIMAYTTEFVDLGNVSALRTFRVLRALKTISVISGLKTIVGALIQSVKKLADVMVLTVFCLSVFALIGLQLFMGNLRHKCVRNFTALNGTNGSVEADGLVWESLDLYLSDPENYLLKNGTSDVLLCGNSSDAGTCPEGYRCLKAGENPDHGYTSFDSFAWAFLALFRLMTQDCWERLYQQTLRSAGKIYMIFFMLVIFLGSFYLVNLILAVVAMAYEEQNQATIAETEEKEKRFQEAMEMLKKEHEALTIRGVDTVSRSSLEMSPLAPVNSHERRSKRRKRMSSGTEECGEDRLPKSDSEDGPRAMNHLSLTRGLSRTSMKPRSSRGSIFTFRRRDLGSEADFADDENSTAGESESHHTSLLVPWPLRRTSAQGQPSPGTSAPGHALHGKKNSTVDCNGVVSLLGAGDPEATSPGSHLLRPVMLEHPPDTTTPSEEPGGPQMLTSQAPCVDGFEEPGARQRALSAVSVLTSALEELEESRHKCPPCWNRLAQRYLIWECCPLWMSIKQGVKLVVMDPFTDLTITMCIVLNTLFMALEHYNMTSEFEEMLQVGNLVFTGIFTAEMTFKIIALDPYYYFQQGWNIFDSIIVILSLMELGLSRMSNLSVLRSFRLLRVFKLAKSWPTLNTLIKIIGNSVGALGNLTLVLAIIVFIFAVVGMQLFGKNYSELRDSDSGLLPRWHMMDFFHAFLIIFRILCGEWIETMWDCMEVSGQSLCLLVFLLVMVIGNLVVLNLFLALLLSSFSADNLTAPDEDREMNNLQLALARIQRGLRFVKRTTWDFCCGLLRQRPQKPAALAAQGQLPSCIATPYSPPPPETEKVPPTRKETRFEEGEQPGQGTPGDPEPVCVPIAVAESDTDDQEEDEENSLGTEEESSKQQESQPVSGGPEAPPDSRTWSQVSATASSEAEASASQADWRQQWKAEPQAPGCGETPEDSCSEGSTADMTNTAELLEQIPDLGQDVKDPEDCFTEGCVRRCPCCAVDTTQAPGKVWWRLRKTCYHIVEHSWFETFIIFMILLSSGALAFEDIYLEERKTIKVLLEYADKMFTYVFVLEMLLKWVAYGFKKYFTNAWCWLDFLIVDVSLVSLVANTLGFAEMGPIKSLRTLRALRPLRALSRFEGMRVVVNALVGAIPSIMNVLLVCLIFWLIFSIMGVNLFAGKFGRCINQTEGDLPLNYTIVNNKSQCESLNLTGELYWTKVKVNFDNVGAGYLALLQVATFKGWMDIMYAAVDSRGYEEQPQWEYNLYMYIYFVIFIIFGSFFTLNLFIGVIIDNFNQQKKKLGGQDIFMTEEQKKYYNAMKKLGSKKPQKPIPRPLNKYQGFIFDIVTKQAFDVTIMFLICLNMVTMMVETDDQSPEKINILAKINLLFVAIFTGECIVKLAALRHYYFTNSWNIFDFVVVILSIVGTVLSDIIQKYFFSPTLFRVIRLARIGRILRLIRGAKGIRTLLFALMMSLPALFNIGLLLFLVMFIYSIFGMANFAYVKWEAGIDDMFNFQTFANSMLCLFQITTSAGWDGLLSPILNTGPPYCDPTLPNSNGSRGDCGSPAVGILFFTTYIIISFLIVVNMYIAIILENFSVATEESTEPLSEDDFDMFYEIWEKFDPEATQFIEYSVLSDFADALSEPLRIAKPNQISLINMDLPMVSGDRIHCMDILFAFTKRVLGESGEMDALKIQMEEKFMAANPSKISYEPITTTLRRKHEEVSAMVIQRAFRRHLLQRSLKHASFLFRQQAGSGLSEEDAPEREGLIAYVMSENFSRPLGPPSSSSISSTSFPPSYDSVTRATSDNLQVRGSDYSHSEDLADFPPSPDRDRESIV
How it was run: as §1

hERG = hERG (Homo sapiens, UniProt Q12809); test: in vitro; conditions: 100% = no change, <100% = inhibition
How it was run: as §1

Kir2.1 = biological target: T7, Kir2.1 (Homo sapiens, UniProt P63252); test: Ion channel panel (IonWorks Barracuda): Kir2.1; format: cell-based; conditions: 100% = no change, <100% = inhibition
T7 construct: host or cells: HEK293 or CHO
How it was run: as §1

Kv1.1 = biological target: T8, Kv1.1 (Homo sapiens, UniProt Q09470); test: cell-based; format: cell-based; conditions: 100% = no change, <100% = inhibition
T8 construct: host or cells: HEK293 or CHO
How it was run: as §1

Kv1.2 = biological target: T9, Kv1.2 (Homo sapiens, UniProt P16389); test: cell-based; format: cell-based; conditions: 100% = no change, <100% = inhibition
T9 construct: host or cells: HEK293 or CHO
How it was run: as §1

Kv1.3 = biological target: T10, Kv1.3 (Homo sapiens, UniProt P22001); test: cell-based; format: cell-based; conditions: 100% = no change, <100% = inhibition
T10 construct: host or cells: HEK293 or CHO
How it was run: as §1

Nav1.7 = biological target: T11, Nav1.7 (Homo sapiens, UniProt Q15858); test: cell-based; format: cell-based; conditions: 100% = no change; for Activity of Nav1.7 with peptide, expressed as a percentage of the reference compound: peptide at 0.2 μM; for Activity of Nav1.7 with peptide (percentage of the reference compound): peptide at 20 μM
T11 construct: host or cells: HEK293 or CHO
T11 sequence (Q15858 whole entry): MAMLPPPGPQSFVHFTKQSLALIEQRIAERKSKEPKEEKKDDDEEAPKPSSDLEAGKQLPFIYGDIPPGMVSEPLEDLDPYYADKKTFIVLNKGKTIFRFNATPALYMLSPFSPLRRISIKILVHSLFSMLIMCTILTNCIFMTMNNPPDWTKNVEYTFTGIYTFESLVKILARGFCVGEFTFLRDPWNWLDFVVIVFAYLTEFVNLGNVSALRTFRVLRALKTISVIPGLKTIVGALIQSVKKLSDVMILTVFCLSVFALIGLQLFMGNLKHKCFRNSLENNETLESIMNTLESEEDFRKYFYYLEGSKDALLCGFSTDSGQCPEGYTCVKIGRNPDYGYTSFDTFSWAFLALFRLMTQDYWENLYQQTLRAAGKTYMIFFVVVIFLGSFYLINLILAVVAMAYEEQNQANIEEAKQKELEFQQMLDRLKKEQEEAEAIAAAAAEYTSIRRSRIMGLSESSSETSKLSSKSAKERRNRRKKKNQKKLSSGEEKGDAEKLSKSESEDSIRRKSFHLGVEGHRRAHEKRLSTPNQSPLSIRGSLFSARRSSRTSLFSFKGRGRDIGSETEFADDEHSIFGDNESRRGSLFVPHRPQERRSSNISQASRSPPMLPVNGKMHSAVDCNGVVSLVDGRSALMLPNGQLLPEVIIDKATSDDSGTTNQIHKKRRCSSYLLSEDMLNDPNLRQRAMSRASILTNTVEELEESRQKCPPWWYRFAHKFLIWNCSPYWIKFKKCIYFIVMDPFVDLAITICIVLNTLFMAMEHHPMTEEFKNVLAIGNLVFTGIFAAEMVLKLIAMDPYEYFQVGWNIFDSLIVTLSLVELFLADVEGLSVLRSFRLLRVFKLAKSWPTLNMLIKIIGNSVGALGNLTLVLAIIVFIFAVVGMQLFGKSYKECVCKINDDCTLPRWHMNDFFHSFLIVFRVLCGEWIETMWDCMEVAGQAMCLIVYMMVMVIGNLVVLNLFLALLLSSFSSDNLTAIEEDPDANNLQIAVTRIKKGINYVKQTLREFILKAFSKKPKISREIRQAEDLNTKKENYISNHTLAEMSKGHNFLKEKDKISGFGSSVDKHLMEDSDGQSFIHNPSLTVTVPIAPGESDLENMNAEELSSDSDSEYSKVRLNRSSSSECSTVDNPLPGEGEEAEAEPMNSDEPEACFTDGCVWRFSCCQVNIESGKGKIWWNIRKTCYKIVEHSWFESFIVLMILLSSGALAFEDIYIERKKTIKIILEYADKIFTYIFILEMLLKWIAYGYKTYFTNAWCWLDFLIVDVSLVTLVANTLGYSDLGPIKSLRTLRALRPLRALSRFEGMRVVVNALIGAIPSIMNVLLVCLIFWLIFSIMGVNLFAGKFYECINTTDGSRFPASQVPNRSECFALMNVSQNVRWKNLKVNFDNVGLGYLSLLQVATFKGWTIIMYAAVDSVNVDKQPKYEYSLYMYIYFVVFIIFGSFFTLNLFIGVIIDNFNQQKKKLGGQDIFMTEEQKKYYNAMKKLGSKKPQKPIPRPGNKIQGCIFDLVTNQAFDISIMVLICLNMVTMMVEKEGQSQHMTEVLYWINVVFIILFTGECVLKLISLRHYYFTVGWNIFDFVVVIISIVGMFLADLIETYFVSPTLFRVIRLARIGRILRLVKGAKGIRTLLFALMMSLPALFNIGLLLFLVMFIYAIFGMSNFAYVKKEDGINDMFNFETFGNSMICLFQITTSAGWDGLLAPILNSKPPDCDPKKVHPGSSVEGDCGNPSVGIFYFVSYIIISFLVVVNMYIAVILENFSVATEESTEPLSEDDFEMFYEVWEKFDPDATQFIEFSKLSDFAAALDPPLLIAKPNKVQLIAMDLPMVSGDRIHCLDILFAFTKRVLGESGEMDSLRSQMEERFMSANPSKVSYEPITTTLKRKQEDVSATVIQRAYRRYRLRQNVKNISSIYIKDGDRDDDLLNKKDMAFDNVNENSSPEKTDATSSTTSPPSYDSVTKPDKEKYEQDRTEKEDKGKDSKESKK

NR2A = biological target: T12, NR2A (Homo sapiens, UniProt Q12879); test: Ion channel panel (IonWorks Barracuda): NR2A; format: cell-based; conditions: 100% = no change, <100% = inhibition
T12 construct: host or cells: HEK293 or CHO
How it was run: as §1

NR2B = biological target: T13, NR2B (Homo sapiens, UniProt Q13224); test: Ion channel panel (IonWorks Barracuda): NR2B; format: cell-based; conditions: 100% = no change, <100% = inhibition
T13 construct: host or cells: HEK293 or CHO
How it was run: as §1

TRPA1 = biological target: T14, TRPA1 (Homo sapiens, UniProt O75762); test: Ion channel panel (IonWorks Barracuda): TRPA1; format: cell-based; conditions: 100% = no change, <100% = inhibition
T14 construct: host or cells: HEK293 or CHO
T14 sequence (O75762 whole entry): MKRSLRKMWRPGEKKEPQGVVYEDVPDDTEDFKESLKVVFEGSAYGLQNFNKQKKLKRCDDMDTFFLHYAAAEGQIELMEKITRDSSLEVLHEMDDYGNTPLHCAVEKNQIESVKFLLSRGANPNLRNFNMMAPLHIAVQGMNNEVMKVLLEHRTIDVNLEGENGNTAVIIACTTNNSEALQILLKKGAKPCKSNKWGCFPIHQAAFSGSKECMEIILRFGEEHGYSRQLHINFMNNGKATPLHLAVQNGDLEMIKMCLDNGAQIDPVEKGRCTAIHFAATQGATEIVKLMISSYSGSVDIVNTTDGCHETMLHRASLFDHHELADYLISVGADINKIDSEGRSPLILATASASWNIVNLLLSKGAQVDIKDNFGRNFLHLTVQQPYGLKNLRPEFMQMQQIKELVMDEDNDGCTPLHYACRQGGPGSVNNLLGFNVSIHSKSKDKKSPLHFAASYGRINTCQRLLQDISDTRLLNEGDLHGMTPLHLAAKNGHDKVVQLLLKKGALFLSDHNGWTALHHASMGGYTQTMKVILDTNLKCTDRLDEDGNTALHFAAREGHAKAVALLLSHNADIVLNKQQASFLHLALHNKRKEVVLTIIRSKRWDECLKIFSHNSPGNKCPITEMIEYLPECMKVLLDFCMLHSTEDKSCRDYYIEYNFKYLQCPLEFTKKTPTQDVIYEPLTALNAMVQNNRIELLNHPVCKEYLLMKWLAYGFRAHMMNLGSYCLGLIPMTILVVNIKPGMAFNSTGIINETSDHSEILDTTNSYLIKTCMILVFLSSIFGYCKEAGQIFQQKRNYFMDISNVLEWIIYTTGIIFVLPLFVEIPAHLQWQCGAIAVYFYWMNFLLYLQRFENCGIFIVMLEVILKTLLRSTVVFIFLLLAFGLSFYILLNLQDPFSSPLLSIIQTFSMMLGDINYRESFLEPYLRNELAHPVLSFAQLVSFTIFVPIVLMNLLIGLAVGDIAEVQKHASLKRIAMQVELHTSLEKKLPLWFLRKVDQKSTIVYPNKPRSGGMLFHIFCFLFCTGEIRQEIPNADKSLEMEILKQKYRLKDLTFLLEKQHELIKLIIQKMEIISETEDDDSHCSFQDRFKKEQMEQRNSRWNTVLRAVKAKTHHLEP
How it was run: as §1

TRPV1 = biological target: T15, TRPV1 (Homo sapiens, UniProt Q8NER1); test: Ion channel panel (IonWorks Barracuda): TRPV1; format: cell-based; conditions: 100% = no change, <100% = inhibition
T15 construct: host or cells: HEK293 or CHO
How it was run: as §1

[1] = first of two Nav1.5 columns (probably TP1)
[2] = second of two Nav1.5 columns (probably TP2)
[3] = first of two Nav1.7 columns (probably TP1)
[4] = second of two Nav1.7 columns (probably TP2)

For “20 (GSQIDTNVKCSGSSKCVKICIDRYNTRGAKCINGRCTCYP) [compound 20]”, the “Activity of 5HT3a with peptide (percentage of the reference compound)” value (5HT3a) was 91%, the “Activity of 5HT3a with peptide, expressed as a percentage of the reference compound” value (5HT3a) was 96% and the “Activity of a3b4 with peptide, expressed as a percentage of the reference compound” value (α3β4; peptide at 0.2 μM) was 103%. The “Activity of a3b4 with peptide (percentage of the reference compound)” value (α3β4; peptide at 20 μM) was 94%, the “Activity of a4b2 with peptide, expressed as a percentage of the reference compound” value (α4β2; peptide at 0.2 μM) was 113% and the “Activity of a4b2 with peptide (percentage of the reference compound)” value (α4β2; peptide at 20 μM) was 92%. For the same substance, the “Activity of Cav2.1 with peptide, expressed as a percentage of the reference compound” value (Cav2.1; peptide at 0.2 μM) was 100%, the “Activity of Cav2.1 with peptide (percentage of the reference compound)” value (Cav2.1; peptide at 20 μM) was 116% and the “Activity of Cav2.2 with peptide, expressed as a percentage of the reference compound” value (Cav2.2; peptide at 0.2 μM) was 110%. For the same substance, the “Activity of Cav2.2 with peptide (percentage of the reference compound)” value (Cav2.2; peptide at 20 μM) was 105%, the “Activity of Kv2.1 with peptide, expressed as a percentage of the reference compound” value (Kv2.1; peptide at 0.2 μM) was 99% and the “Activity of Kv2.1 with peptide (percentage of the reference compound)” value (Kv2.1; peptide at 20 μM) was 97%. For the same substance, the “Activity of GABA with peptide, expressed as a percentage of the reference compound” value (GABA; peptide at 0.2 μM) was 109%, the “Activity of GABA with peptide (percentage of the reference compound)” value (GABA; peptide at 20 μM) was 106% and the “Activity of Nav1.5 with peptide, expressed as a percentage of the reference compound” value (Nav1.5; [1]) was 103%. The “Activity of Nav1.5 with peptide, expressed as a percentage of the reference compound” value (Nav1.5; [2]) was 101%, the “Activity of Nav1.5 with peptide (percentage of the reference compound)” value (Nav1.5; [1]) was 102% and the “Activity of Nav1.5 with peptide (percentage of the reference compound)” value (Nav1.5; [2]) was 105%. For the same substance, the “Activity of hERG with peptide, expressed as a percentage of the reference compound” value (hERG; peptide at 0.2 μM) was 90%, the “Activity of hERG with peptide (percentage of the reference compound)” value (hERG; peptide at 20 μM) was 87% and the “Activity of Kir2.1 with peptide, expressed as a percentage of the reference compound” value (Kir2.1; peptide at 0.2 μM) was 89%. The “Activity of Kir2.1 with peptide (percentage of the reference compound)” value (Kir2.1; peptide at 20 μM) was 95%, the “Activity of Kv1.1 with peptide, expressed as a percentage of the reference compound” value (Kv1.1; peptide at 0.2 μM) was 94% and the “Activity of Kv1.1 with peptide (percentage of the reference compound)” value (Kv1.1; peptide at 20 μM) was 95%. The “Activity of Kv1.2 with peptide, expressed as a percentage of the reference compound” value (Kv1.2; peptide at 0.2 μM) was 115%, the “Activity of Kv1.2 with peptide (percentage of the reference compound)” value (Kv1.2; peptide at 20 μM) was 74% and the “Activity of Kv1.3 with peptide, expressed as a percentage of the reference compound” value (Kv1.3; peptide at 0.2 μM) was 80%. The “Activity of Kv1.3 with peptide (percentage of the reference compound)” value (Kv1.3; peptide at 20 μM) was 7%, the “Activity of Nav1.7 with peptide, expressed as a percentage of the reference compound” value (Nav1.7; [3]) was 92% and the “Activity of Nav1.7 with peptide, expressed as a percentage of the reference compound” value (Nav1.7; [4]) was 59%. For the same substance, the “Activity of Nav1.7 with peptide (percentage of the reference compound)” value (Nav1.7; [3]) was 81%, the “Activity of Nav1.7 with peptide (percentage of the reference compound)” value (Nav1.7; [4]) was 95% and the “Activity of NR2A with peptide, expressed as a percentage of the reference compound” value (NR2A; peptide at 0.2 μM) was 98%. For the same substance, the “Activity of NR2A with peptide (percentage of the reference compound)” value (NR2A; peptide at 20 μM) was 104%, the “Activity of NR2B with peptide, expressed as a percentage of the reference compound” value (NR2B; peptide at 0.2 μM) was 104% and the “Activity of NR2B with peptide (percentage of the reference compound)” value (NR2B; peptide at 20 μM) was 92%. For the same substance, the “Activity of TRPA1 with peptide, expressed as a percentage of the reference compound” value (TRPA1; peptide at 0.2 μM) was 114%, the “Activity of TRPA1 with peptide (percentage of the reference compound)” value (TRPA1; peptide at 20 μM) was 114% and the “Activity of TRPV1 with peptide, expressed as a percentage of the reference compound” value (TRPV1; peptide at 0.2 μM) was 109%. The “Activity of TRPV1 with peptide (percentage of the reference compound)” value (TRPV1; peptide at 20 μM) was 102%.

Reference: US20200262877A1, “ION CHANNEL-BINDING PEPTIDES AND METHODS OF USE THEREOF” (priority 2017, published 2020)
